In article PMC2173104:

Experiments:
Assay in all cases: two-hybrid
[1] = biological target: Gal4 binding domain Iqg1p fusion protein, Iqg1p (1–1495) (S. cerevisiae) (UniProt Q12280)
[2] = biological target: Gal4 binding domain fusion of Iqg1p (295–823) (S. cerevisiae) (UniProt Q12280)
[3] = biological target: Gal4 binding domain fusion of Iqg1p (1–823) (S. cerevisiae) (UniProt Q12280)

Substance | beta-galactosidase activity [1] | beta-galactosidase activity [2] | beta-galactosidase activity [3]
Cdc12p in pGAD-C2 (from UniProt P32468 1-407) (natural protein) | 23 Miller units |  | 
Myosin light chain protein Mlc1p in pGAD-C2 (from UniProt P53141 1-149) (natural protein) | 98.7 Miller units | 408 Miller units | 107 Miller units
